The target in data set [1] is T1, variant nuclease 7 substitutions D590G/E154G/E736G (P14R, D32R, I61R, E311R, D590G, E154G, E736G).
T1 chain: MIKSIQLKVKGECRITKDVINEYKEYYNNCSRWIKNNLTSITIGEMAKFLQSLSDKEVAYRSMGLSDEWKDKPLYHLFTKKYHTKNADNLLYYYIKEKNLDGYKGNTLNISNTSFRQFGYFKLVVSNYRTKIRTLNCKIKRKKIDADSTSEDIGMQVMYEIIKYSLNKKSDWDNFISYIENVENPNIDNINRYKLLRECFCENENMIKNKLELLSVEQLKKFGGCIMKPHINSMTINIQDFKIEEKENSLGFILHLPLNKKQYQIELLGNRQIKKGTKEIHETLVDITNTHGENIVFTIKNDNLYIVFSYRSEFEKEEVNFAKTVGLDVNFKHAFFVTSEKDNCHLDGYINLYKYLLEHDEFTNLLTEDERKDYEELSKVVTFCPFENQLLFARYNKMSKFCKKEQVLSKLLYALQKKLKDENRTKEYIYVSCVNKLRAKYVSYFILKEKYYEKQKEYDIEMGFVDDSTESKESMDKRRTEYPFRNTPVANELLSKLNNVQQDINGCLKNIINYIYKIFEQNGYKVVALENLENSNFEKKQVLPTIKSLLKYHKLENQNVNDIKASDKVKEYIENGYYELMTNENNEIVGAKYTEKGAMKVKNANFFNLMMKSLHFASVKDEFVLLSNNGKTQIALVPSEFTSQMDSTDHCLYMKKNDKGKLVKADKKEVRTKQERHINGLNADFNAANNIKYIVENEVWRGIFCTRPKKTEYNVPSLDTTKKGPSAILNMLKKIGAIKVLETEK
Kind of data set: cell_activity; PAM 5'-TTTG-3'. The conditions noted are these: tags: pcDNA3.1 expression. The method, boiled down:
(§1)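 HEK293T cells were lipofected with nuclease plasmid (pcDNA3.1 backbone) plus RNA guide plasmid, with guide omitted in negative controls. After ~72 h cells were lysed in QuickExtract and % indels were derived from NGS reads, averaged over two bioreplicates and two technical replicates.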

Data set [2] deals with T2, variant nuclease E154G combination (P14R, D32R, I61R, E311R, E154G).
T2 chain: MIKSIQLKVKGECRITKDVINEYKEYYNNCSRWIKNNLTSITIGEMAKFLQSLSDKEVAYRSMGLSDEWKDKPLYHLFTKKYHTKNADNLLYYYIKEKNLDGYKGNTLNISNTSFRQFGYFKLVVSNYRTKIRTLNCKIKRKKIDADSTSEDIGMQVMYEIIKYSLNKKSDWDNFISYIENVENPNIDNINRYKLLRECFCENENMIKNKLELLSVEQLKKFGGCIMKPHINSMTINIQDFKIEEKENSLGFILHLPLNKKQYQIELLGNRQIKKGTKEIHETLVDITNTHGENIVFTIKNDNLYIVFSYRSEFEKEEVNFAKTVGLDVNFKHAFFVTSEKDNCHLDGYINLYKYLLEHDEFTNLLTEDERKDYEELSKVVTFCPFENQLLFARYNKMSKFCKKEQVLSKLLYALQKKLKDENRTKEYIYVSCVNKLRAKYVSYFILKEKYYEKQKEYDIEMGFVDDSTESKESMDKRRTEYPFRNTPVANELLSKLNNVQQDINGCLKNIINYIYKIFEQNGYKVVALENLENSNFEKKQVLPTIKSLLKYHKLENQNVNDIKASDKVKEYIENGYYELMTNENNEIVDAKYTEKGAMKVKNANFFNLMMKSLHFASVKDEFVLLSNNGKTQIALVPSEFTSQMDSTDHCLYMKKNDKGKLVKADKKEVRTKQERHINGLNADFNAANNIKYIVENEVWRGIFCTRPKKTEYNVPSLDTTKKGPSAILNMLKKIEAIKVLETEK
Kind of data set: cell_activity; PAM 5'-TTTG-3'. The conditions noted are these: tags: pcDNA3.1 expression. The method, boiled down: as §1

In patent US20240035010, “COMPOSITIONS COMPRISING A VARIANT POLYPEPTIDE AND USES THEREOF” (Arbor Biotechnologies, Inc., published 2024) one finds indel activity data, which are given here for 1 molecule.

B1: AAVS1 crRNA ; AAVS1 target (ssRNA ; dsDNA)
RNA: CUUGUUGUAUAUGUCCUUUUAUAGGUAUUAAACAACUGAGAAUGGUGCGUCCUAGG
DNA 1: TGAGAATGGTGCGTCCTAGG
DNA 2: CCTAGGACGCACCATTCTCA
For B1, the indel activity was 5.91 fold of WT in data set [1] and 5.79 fold of WT in data set [2].
